Test results taken from paper PMC8439235, “High-yield synthesis and purification of recombinant human GABA transaminase for high-throughput screening assays” (Journal of Enzyme Inhibition and Medicinal Chemistry, 2021).

Molecular target: the molecule itself
Test: SEC; Superdex 200 Increase 10/300 GL, 50 mM K4P2O7 buffer pH 8.6, 0.5 ml/min, 4 °C; size judged against standard peaks (158 kDa and 44 kDa) and the 53 kDa monomer band on reducing SDS-PAGE

B1: 6xHis-tagged recombinant human GABA transaminase (GABA-T) (enzyme)
chain: not shown
notes: human GABA transaminase (GABA-T; EC 2.6.1.19) encoded by the ABAT gene; The band on reducing SDS-PAGE was 53 kDa; The purification tag was not removed; also called γ-aminobutyric acid transaminase; 4-aminobutyrate transaminase; source: Expi293F cells, transiently transfected, purified (Ni-NTA, size-exclusion chromatography); not shown: Avi-tag (preceded by an HRV 3C protease site), C-terminal, …
stoichiometry N: 2
